Test results reported in patent publication US11230591.
Numbering of substitutions follows the chain as printed.

B1: 3-16 (antibody, V domains shown)
VH: QVQVVQSGAEVKKPGASVMVSCKTSGYRFTIYSIAWMRQAPGQGLEWMGSINTYNGNTKYAEKFQGRVTMSRDTSTSTAYMEVRSLGSADTAMYYCARDAENWGFFDDWGQGTLVTVSS
VL: EIVLTQSPGTVSLSPGERVTLSCRASQSVGRHLAWYQQKPGQPPRLLIYGASTRATGVPDRFSGSGSETEFTLAISSLQSEDFALYYCQQYNTWPYTFGQGTKLEIK
B2: 1-125 (antibody, V domains shown)
VH: QVQLVESGGGLVKPGGSLRLSCAPAGFNFKDYYMTWIRQAPGKGLEWVSFISSSGQTIYYADSVKGRFTISRDNARNSLYLQMNSLRAEDTAVYYCARDSYSKLVDIVAIEAFDLWGQGTLVSVSS
VL: SYELTQPPSVSVAPGKMARITCGGDNIGSKSVHWYQQRPGQAPVLVIRFDTDRPSRIPERFSGSNSGNTATLAISRVEAGDEADYYCQVWDSSSARLVFGGGTKLTVL
B3: 3-7 (antibody, V domains shown)
VH: QVQLVQSGAEVKKPGASVKVSCKTSGYTFNTYAISWVRQAPGQGLEWVGWINTYSGSTKYAQKVQGRVTMTTDTSTSTAYMELRGLRSDDTAVYYCARDGYNWGFLDFWGQGSLVTVSS
VL: DIQMTQSPSSLSASVGDRVTITCRASQGISNYLAWYQQKPGKLPKLLIYAASTLQSGVPSRFSGSGSGTDFTLTISSLQPEDVASYYCQKYNSAPLTFGPGTKVDIK
B4: 1-150 (antibody, V domains shown)
VH: QVQLVESGGGLVKPGGSLRLSCAASGFSFSAYYMSWIRQAPGKGLEWISYISSSGNTIYYTDSVKGRFTIARDNAKNSLYLQMNSLRAEDTGLYYCARDSYSKLADIEATEAFDVWGQGTMVAVSS
VL: SYELTQPPSVSVAPGKTARITCGGNNIGSKSVHWYQQKPGQAPVMVIYYDSDRPSGIPERFSGSNSGNTATLTISRVEAGDEADYYCQVWDSGSDRVVFGGGTKLTVL
B5: 1-85 (antibody, V domains shown)
VH: QVHLVESGGGLVKPGRSLRLSCAASGFTFSDYYMAWIRQVPGKGLEWVSFISSSGRTIYYADSVKGRFTISRDNAKDSLYLQMHSLRAEDTAVYYCARDSYSKLVDIEAIEAFDIWGRGTMVTVSS
VL: SYELAQPPSVSVAPGKTATIACGGDNIGGKSVHWYLQKAGQAPVLVISYDSDRPSGIPERFSGSNSGNTATLTISRVEAGDEADYFCQVWDRHGDHVVFGGGTKLTVL
B6: 1-175 (antibody, V domains shown)
VH: QVHLVESGGGLVKPGGSLRLSCAASGFTFSDYYMAWIRRAPGKGLEWISFISGSGRTLYHAESVKGRFTVSRDNAKDSLYLHMHSLRDADTAVYYCARDSYSKLVEIEAIEAFDVWGRGTVVTVSS
VL: B5 VL with T17P, T19R, I47M, A83G, H93Q, G94T
B7: 2-25 (antibody, V domains shown)
VH: QVQLVESGAEVKKPGALVKVSCKASGYTFTNYAIHWVRQASGQRLEWMGWINAGRGNTKYSQKFQGRVTITRDTSASTAYMELSSLRSEDAAVYFCARDESTGDYYYYMDVWGKGTTVTVSS
VL: SYELTQPPSVSVSPGQTASITCSGDRLDDKYASWYQQKAGQSPVLVIYQDNKRPSGIPERFSGSNSGNTATLTISGTQAMDEADYYCQAWDSDTYVFGTGTKVTVL
B8: 1-32 (antibody, V domains shown)
VH: QVKLVESGGGVVQPGRSLRLSCAGSGFAFDNYAMHWVRQAPGKGLEWVAVISLEGRNKYYAGPAKGRFSISRDNSRNTVHLQMNSLRPEDTAVYFCARDMRYYYDSNGHYRNRYGMDVWGQGTTVIVSS
VL: DIQMTQSPSSLSASVGDSVTITCQASQDINQFVSWYQQKPGKPPKLLIYDASNLESGVPSRFSGSGSGTHFTFTISSLQPDDIATYYCQQYENLFTFGPGTKVDIK
B9: 1-15 (antibody, V domains shown)
VH: QVQLVASGGGLVKPGGSLRLSCAASEFTFSDYYMTWIRQAPGKGLEWVSYISSSGTTIYYADSVKGRFTVSRDNAKNSLFLQMNSLRAEDTALYYCARDSYSKLVDIEAIEAFDIWGQGTMVTVSS
VL: SYELTQPPSVSVGPGRTARITCGANNIGSKSVHWYQQRPGQAPVLVISFDTDRPSGIPERFSGSNSGNTATLTISRVEAGDEADYFCQVWDRTSDHVVFGGGTKLTVL
B10: 1-64 (antibody, V domains shown)
VH: B9 VH with E26G
VL: B9 VL

Molecular target: CMV virions
Assay: virion ELISA

Binder	EC50
B1	100 ng/mL
B2	1400 ng/mL
B3	70 ng/mL

Molecular target: pentameric gH complex on infectious CMV (neutralization assays) (human cytomegalovirus)
Assay: cell-based or functional assay

Binder	EC50 Neutralizing	IC50 in ARPE-19	IC50 in MRC-5
B4	1 ng/mL	0.31 ng/mL	260 ng/mL
B1	90 ng/mL	17 ng/mL	37 ng/mL
B5	0.9 ng/mL	0.13 ng/mL	
B6	1 ng/mL		
B7	0.09 ng/mL	0.08 ng/mL	
B2	0.9 ng/mL		
B3	80 ng/mL	9.5 ng/mL	19 ng/mL
B8	20 ng/mL	0.82 ng/mL	
B9	0.9 ng/mL		
B10	1 ng/mL		

Molecular target: recombinant pentameric gH complex (Towne strain) (human cytomegalovirus, Towne strain) (UniProt P17176)
Sequence (P17176 30-715, one chain of several): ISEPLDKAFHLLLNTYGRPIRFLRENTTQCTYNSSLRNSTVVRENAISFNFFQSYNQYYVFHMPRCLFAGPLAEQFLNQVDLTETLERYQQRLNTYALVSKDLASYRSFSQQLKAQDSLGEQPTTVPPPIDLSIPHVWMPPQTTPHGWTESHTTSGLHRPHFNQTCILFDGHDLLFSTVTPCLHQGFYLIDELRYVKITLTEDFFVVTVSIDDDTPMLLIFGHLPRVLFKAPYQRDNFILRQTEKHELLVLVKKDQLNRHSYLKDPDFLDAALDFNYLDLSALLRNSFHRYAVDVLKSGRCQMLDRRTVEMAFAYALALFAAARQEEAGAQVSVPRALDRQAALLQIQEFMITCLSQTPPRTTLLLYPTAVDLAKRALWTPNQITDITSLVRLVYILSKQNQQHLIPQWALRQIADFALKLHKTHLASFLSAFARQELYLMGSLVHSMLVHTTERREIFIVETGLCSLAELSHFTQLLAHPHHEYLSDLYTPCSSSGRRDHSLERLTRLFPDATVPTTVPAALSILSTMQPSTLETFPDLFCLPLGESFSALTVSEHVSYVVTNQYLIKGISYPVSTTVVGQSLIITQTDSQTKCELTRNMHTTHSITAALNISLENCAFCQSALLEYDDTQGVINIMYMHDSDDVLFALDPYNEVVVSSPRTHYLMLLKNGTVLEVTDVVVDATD
Assay: BLI competition on His-pentamer; competitor (antibody 2): 3-7

Binder	Pair-wise inhibition (%)
B4	0%
B1	79%
B5	27%
B7	9%
B3	91%
B8	8%

Molecular target: recombinant pentameric gH complex (Towne strain) (human cytomegalovirus, Towne strain) (UniProt P17176)
Assay: BLI competition on His-pentamer; competitor (antibody 2): 1-32

Binder	Pair-wise inhibition (%)
B4	-11%
B1	-5%
B5	16%
B7	2%
B3	10%
B8	91%

Molecular target: recombinant pentameric gH complex (Towne strain) (human cytomegalovirus, Towne strain) (UniProt P17176)
Assay: BLI competition on His-pentamer; competitor (antibody 2): 1-85

Binder	Pair-wise inhibition (%)
B4	61%
B1	16%
B5	87%
B7	7%
B3	35%
B8	18%

Molecular target: recombinant pentameric gH complex (Towne strain) (human cytomegalovirus, Towne strain) (UniProt P17176)
Assay: BLI competition on His-pentamer; competitor (antibody 2): 2-18

Binder	Pair-wise inhibition (%)
B4	-10%
B1	-17%
B5	14%
B7	87%
B3	51%
B8	-1%

Molecular target: recombinant pentameric gH complex (Towne strain) (human cytomegalovirus, Towne strain) (UniProt P17176)
Assay: BLI competition on His-pentamer; competitor (antibody 2): 2-25

Binder	Pair-wise inhibition (%)
B4	-22%
B1	-21%
B5	-4%
B7	104%
B3	44%
B8	-33%

Molecular target: recombinant pentameric gH complex (Towne strain) (human cytomegalovirus, Towne strain) (UniProt P17176)
Assay: BLI competition on His-pentamer; competitor (antibody 2): 3-15

Binder	Pair-wise inhibition (%)
B4	6%
B1	95%
B5	33%
B7	10%
B3	102%
B8	7%

Molecular target: recombinant pentameric gH complex (Towne strain) (human cytomegalovirus, Towne strain) (UniProt P17176)
Assay: BLI competition on His-pentamer; competitor (antibody 2): 3-16

Binder	Pair-wise inhibition (%)
B4	2%
B1	88%
B5	37%
B7	6%
B3	97%
B8	10%

Molecular target: recombinant pentameric gH complex (Towne strain) (human cytomegalovirus, Towne strain) (UniProt P17176)
Assay: BLI competition on His-pentamer; competitor (antibody 2): 57.4

Binder	Pair-wise inhibition (%)
B4	-19%
B1	11%
B5	29%
B7	15%
B3	20%
B8	57%

Molecular target: recombinant pentameric gH complex (Towne strain) (human cytomegalovirus, Towne strain) (UniProt P17176)
Assay: BLI competition on His-pentamer; competitor (antibody 2): 70.7

Binder	Pair-wise inhibition (%)
B4	-32%
B1	2%
B5	36%
B7	29%
B3	38%
B8	87%

Molecular target: recombinant pentameric gH complex (Towne strain) (human cytomegalovirus, Towne strain) (UniProt P17176)
Assay: BLI competition on His-pentamer; competitor (antibody 2): 1-103

Binder	Pair-wise inhibition (%)
B4	26%
B1	6%
B5	27%
B7	-4%
B3	27%
B8	15%

Molecular target: recombinant pentameric gH complex (Towne strain) (human cytomegalovirus, Towne strain) (UniProt P17176)
Assay: BLI competition on His-pentamer; competitor (antibody 2): 1-150

Binder	Pair-wise inhibition (%)
B4	104%
B1	-22%
B5	117%
B7	-17%
B3	-6%
B8	4%

Molecular target: recombinant pentameric gH complex (Towne strain) (human cytomegalovirus, Towne strain) (UniProt P17176)
Assay: BLI competition on His-pentamer; competitor (antibody 2): 124.4

Binder	Pair-wise inhibition (%)
B4	-22%
B1	-1%
B5	24%
B7	1%
B3	35%
B8	7%

Molecular target: recombinant pentameric gH complex (Towne strain) (human cytomegalovirus, Towne strain) (UniProt P17176)
Assay: BLI competition on His-pentamer; competitor (antibody 2): 270.7

Binder	Pair-wise inhibition (%)
B4	-29%
B1	-1%
B5	27%
B7	-10%
B3	16%
B8	97%

Molecular target: recombinant pentameric gH complex (Towne strain) (human cytomegalovirus, Towne strain) (UniProt P17176)
Assay: BLI competition on His-pentamer; competitor (antibody 2): 276.1

Binder	Pair-wise inhibition (%)
B4	-12%
B1	18%
B5	-2%
B7	-25%
B3	12%
B8	-11%

Molecular target: recombinant pentameric gH complex (Towne strain) (human cytomegalovirus, Towne strain) (UniProt P17176)
Assay: BLI competition on His-pentamer; competitor (antibody 2): 316.2

Binder	Pair-wise inhibition (%)
B4	-22%
B1	-7%
B5	29%
B7	-1%
B3	21%
B8	78%

Molecular target: recombinant pentameric gH complex (Towne strain) (human cytomegalovirus, Towne strain) (UniProt P17176)
Assay: BLI competition on His-pentamer; competitor (antibody 2): 324.4

Binder	Pair-wise inhibition (%)
B4	-12%
B1	-5%
B5	17%
B7	-4%
B3	14%
B8	6%
